This note sets out measurements from PMC5536344.

Experiment [1] has as its target HIV-1 Pr55^Gag (untagged full length wild type Gag polyprotein) (HIV-1). Nature of the experiment: SEC-MALS.
For experiment [2] the target is unchanged. Nature of the experiment: SEC. In general terms: In gel filtration, larger molecules generally elute earlier.
Experiment [3] concerns the target HIV-1 Pr55^Gag with a TEV-cleavable C-terminal hexahistidine tag, uncleaved (HIV-1). Nature of the experiment: SEC.
In experiment [4] the target is HIV-1 Pr55^Gag with a non-cleavable C-terminal hexahistidine tag (HIV-1). The experiment in a line: SEC.
The target in experiment [5] is HIV-1 Pr55^Gag-ENLYFQ (Pr55^Gag-TEV-His after removal of the tag with TEV protease) (HIV-1). The experiment in a line: SEC.

As for “HIV-1 Pr55^Gag (untagged full length wild type Gag polyprotein) (natural protein)”, the stoichiometry N in experiment [1] and in experiment [2] was 2 each time.
Substance “HIV-1 Pr55^Gag with a TEV-cleavable C-terminal hexahistidine tag, uncleaved (natural protein)” displayed a stoichiometry N in experiment [3] of 2.
“HIV-1 Pr55^Gag with a non-cleavable C-terminal hexahistidine tag (natural protein)” registered a stoichiometry N in experiment [4] of 2.
In experiment [5], “HIV-1 Pr55^Gag-ENLYFQ (Pr55^Gag-TEV-His after removal of the tag with TEV protease) (natural protein)” returned a stoichiometry N of 2.

As a reminder, the stoichiometry N is the number of molecules, sites or subunits per partner or assembly.
